In patent publication US20090324601A1 (published 2009):
Substitutions are numbered along the chain they refer to.

B1: 2.1623.2 (antibody, V domains shown)
VH: QVQLVESGGGLVKPGGSLRLSCAASGFTFSDYYMNWIRQAPGKGLEWVSFISSSGSTIYYADSVKGRFTISRDNAKNSLYLQMNSLRAEDTAVYYCARDGHIAARGMDVWGQGTTVTVSS
VL: DIQMTQSPSSLSASVGDRVTITCRASQSFSRYINWYQQKPGKAPKLLIYAASSLQGGVPSRFSGSGSGTDFTLAISSLQPEDFATYYCQQTYSTPPITFGQGTRLEIK
B2: 2.1853.3 (antibody, V domains shown)
VH: B1 VH with F50Y, T57I, H101R, A103V
VL: B1 VL with S12C, Q27R, F29I, S30T, I33L, A50G, G56S, A74T, T91S
B3: 2.2071.1.3 (antibody, V domains shown)
VH: B1 VH with F50Y, T57I, H101R, A103V
VL: B1 VL with I21L, Q27H, F29I, S30N, G56S, S65N, A74T, T91S, K108T
B4: 5.16.1 (antibody, V domains shown)
VH: QVQLVQSGAEVKKPGASVKVSCKASGYTFTSYYMYWVRQAPGQGLEWMGIINPSGGSTSYAQKFQGRVTMTRDTSTSTVYMELSSLRSEDTAVYYCARGSSPFFDYWGQGTLVTVSS
VL: DIQMTQSPSSLSASVGDRVTITCRASQIISHFLNWYQQKPGKAPKLLVYVASSLQSGVPSRFSGSGSGTDFTLTISSLQPEDFATYYCQQSFSIPLTFGGGTKVEIK
B5: 2.449.1.3 (antibody, V domains shown)
VH: B1 VH with F50Y, T57I, D99E, H101R
VL: B1 VL with T20S, A25P, Y49H, Q55V, A74T, T94N, I107M
notes: Variable regions only
B6: 2.2071.1.3 (antibody, V domains shown)
VH: B1 VH with F50Y, T57I, H101R, A103V
VL: B1 VL with I21L, Q27H, F29I, S30N, G56S, S65N, A74T, T91S, K108T
notes: Variable regions only
B7: 2.351.3 (antibody, V domains shown)
VH: QVQLVQSGAEVKKPGASVKVSCKASGYTFIGYYLHWVRQAPGQGLEWMGSINPNSGGTNYAQKFQGRVTMIRDTSINTAYMELSRLRSDDTAVYYCARDKRITMVRGVHYLYYGWDVWGQGTTVTVSS
VL: DIQMTQSPSSLSASVGDRVTITCRASQVISNYLAWYQQKPGKVPQLLIYAASTLQSGVPSRFSGSGSGTDFTLTISSLQPEDVATYYCQNYKSAPWTFGQGTKVEIK
notes: Variable regions only
B8: 3.87.1.1 (antibody, V domains shown)
VH: QVQLVESGGGVVQPGRSLRLSCAASGFTFSSYGMHWVRQAPGKGLEWVAVIWYDRSNKYYADSVKGRFTISRDNSKNTLYLQMNSLRAEDTAVYYCAGGRSRGAFDYWGQGTLVTVSS
VL: DIQMTQSPSSVSASVGDRVTITCRASQGISSWLAWYQQKPGKAPKLLIFAASSLQSGVPSRFSGSGSGTDFTLTISSLQPEDFATYYCQRTNSFPRTFGQGTKVEIK
notes: Variable regions only
B9: 3.457.3.1 (antibody, V domains shown)
VH: B8 VH with Y107F
VL: B8 VL with P40A, F49Y, A50S
notes: Variable regions only
B10: 3.472.1.1 (antibody, V domains shown)
VH: B8 VH with A61V
VL: B8 VL with G28D, N92S
notes: Variable regions only
B11: 3.772.2 (antibody, V domains shown)
VH: B8 VH with Y107F
VL: B8 VL with G28D, P40A, F49Y
notes: Variable regions only
B12: 3.805.1.3 (antibody, V domains shown)
VH: B8 VH
VL: B8 VL with K45N, F49Y, S93N
notes: Variable regions only
B13: 2.737.1.4 (antibody, V domains shown)
VH: B1 VH with S30R, N35S, S49A, T57I, Y80F
VL: B1 VL with F29I, S30N, R31K, G56S, S63N, L73F, A74T, S76N, S77T
notes: Variable regions only
B14: 2.414.2 (antibody, V domains shown)
VH: QLQLQESGPGLVKPSETLSLTCTVSGGSISSSNYYWGWIRQPPGKGLEWIGTIYYTGSTYYNPSLKSRVTISVDTSKNQFSLKLSSVTAADTAVYYCARHHWVFDYWGQGTLVTVSS
VL: EIVLTQSPDFLSVTPKEKVTITCRASQIIGSSLHWYQQKPDQSPKLLIKYASQSFSGVPSRFSGSGSGTDFTLTLNSLEAEDAATYYCHQSTILPWTFGQGTKVEIK
notes: Variable regions only
B15: 2.542.2 (antibody, V domains shown)
VH: B14 VH with N33T, T56S, S85N
VL: B14 VL with K45N, F55V
notes: Variable regions only
B16: 2.1954.2 (antibody, V domains shown)
VH: QVQLVESGGGVVQPGRSLRLSCAASGFSFSIYGMHWVRQAPGKGLEWVAVIWFDGSNKYYADSVKGRFTISRDNSKNTLYLQMNSLRAEDTALYYCARDKASYYGSGMDYWGQGTLVTVSS
VL: EIVLTQSPGTLSLSPGERATLSCRASQSVSSTYLAWYQHRPGQAPRLLISGASRRATGIPDRFSGSGSGTDFTLTISRLEPEDFAVYYCQHYGSSFTWTFGQGTKVEIK
notes: Variable regions only
B17: 2.2002.3 (antibody, V domains shown)
VH: QVQLVESGGGVVQPGRSLRVSCAASGFMFRSYGMHWVRQAPGKGLEWVAVIWHDGSNKNHGDSVKGRFTISRDNSKNTLYLQMNSLRAEDTAVYYCARGRLAGGGPYYYYYYGMDVWGQGTTVTVSS
VL: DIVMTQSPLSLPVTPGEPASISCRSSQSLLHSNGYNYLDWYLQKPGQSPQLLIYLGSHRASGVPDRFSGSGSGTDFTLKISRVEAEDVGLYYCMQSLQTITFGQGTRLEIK
notes: Variable regions only
B18: 3.341.1 (antibody, V domains shown)
VH: EVQLVESGGGLVQPGGSLRLSCAASGFTFSSYSMNWVRQAPGKGLEWVSFISGSSSTMYYADSVKGRFTISRDNAKNSLYLQMNSLRDEDTAVYYCARLRYFDWSYAFDIWGQGTMVTVSS
VL: DIQMTQSPSSVSTSVGDRVTITCRASQGIRSWLAWYQQRPGKAPKLLIYAASSLQNGVPSRFSGSGSGTDFTLTISSLQPEDFATYFCQQATSFPFTFGPGTKVDIN
notes: Variable regions only; the assays name clone 3.341.2; also called 3.341.2
B19: 3.818.4 (antibody, V domains shown)
VH: B18 VH with F50Y, S56T, Y101H
VL: B18 VL with R30S, N56S, D105G, N107K
notes: Variable regions only
B20: 2.998.2 (antibody, V domains shown)
VH: B14 VH with G27D, S32F, N33I, T56S, S85R, L112Q
VL: B14 VL with E1D, S7F, L11Q, I28V, L75I, A80V, I106V
notes: Variable regions only
B21: 2.84.3 (antibody, V domains shown)
VH: B14 VH with S28F, N33S, T56S, S58T, P63S, K77Q
VL: B14 VL with I2V, L11Q, V19I, S31T, Q38K, D70E, L75I, A83T, I93N
notes: Variable regions only; also called 2.84.1; 2.84.2

Legend:
[1] = biological target: T1, PDGFR-alpha on MG-63 cells (human, UniProt P16234 24-1089); experiment: cell-based or functional assay
[2] = biological target: T1, PDGFR-alpha on MG-63 cells; experiment: cell-based or functional assay; remark: listed apart in the source
PDGFR-beta = PDGFR-beta (UniProt P09619 33-530, limits assumed); experiment: method not described
FLT3 = FLT3 (UniProt P36888 27-541, limits assumed); experiment: method not described
c-kit = c-kit (UniProt P10721 26-520, limits assumed); experiment: method not described
CSF-1R = CSF-1R (UniProt P07333 20-512, limits assumed); experiment: method not described
Throughout, for Average pTyr Inhibition: test concentration or dose not given here.

PDGFR-beta, sequence (P09619 33-530 limits assumed): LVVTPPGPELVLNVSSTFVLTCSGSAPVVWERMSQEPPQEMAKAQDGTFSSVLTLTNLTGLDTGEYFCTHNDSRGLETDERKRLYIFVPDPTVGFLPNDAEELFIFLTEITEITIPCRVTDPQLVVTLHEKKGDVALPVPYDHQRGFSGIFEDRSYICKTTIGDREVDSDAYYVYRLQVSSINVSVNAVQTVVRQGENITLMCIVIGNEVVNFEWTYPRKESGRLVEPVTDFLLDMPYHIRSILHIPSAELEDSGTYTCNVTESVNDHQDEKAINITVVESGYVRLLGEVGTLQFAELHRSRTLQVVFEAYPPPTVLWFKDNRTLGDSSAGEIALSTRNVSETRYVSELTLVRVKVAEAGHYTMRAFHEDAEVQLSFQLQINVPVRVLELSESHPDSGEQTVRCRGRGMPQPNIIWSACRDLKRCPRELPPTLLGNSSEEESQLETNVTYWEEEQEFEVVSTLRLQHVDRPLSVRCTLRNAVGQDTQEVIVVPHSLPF
CSF-1R, sequence (P07333 20-512 limits assumed): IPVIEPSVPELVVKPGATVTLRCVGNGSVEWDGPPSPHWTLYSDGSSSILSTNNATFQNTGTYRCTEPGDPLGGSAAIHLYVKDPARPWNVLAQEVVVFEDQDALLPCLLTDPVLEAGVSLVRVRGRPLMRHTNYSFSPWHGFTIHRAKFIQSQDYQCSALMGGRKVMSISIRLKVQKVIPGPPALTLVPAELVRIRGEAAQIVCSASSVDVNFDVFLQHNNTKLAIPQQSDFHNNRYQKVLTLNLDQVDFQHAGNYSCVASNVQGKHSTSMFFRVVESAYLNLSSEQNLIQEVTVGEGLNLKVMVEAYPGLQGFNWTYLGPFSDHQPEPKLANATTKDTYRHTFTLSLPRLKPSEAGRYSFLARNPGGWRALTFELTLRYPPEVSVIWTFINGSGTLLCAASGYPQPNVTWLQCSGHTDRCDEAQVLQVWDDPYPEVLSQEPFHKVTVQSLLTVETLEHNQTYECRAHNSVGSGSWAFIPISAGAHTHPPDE
c-kit, sequence (P10721 26-520 limits assumed): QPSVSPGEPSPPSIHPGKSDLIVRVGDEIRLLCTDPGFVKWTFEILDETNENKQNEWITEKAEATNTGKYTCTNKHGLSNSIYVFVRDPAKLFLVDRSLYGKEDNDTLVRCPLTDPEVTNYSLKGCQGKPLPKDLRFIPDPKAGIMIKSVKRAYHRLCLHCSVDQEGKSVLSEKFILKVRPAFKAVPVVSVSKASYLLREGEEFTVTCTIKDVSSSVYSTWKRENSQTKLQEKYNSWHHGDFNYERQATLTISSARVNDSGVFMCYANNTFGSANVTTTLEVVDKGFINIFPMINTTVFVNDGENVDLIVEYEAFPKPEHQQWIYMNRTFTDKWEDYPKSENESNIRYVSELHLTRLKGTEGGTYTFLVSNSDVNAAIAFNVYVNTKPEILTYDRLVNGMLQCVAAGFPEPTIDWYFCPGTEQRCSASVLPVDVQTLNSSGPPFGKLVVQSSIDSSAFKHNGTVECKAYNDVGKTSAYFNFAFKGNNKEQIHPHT
T1 sequence (P16234 24-1089): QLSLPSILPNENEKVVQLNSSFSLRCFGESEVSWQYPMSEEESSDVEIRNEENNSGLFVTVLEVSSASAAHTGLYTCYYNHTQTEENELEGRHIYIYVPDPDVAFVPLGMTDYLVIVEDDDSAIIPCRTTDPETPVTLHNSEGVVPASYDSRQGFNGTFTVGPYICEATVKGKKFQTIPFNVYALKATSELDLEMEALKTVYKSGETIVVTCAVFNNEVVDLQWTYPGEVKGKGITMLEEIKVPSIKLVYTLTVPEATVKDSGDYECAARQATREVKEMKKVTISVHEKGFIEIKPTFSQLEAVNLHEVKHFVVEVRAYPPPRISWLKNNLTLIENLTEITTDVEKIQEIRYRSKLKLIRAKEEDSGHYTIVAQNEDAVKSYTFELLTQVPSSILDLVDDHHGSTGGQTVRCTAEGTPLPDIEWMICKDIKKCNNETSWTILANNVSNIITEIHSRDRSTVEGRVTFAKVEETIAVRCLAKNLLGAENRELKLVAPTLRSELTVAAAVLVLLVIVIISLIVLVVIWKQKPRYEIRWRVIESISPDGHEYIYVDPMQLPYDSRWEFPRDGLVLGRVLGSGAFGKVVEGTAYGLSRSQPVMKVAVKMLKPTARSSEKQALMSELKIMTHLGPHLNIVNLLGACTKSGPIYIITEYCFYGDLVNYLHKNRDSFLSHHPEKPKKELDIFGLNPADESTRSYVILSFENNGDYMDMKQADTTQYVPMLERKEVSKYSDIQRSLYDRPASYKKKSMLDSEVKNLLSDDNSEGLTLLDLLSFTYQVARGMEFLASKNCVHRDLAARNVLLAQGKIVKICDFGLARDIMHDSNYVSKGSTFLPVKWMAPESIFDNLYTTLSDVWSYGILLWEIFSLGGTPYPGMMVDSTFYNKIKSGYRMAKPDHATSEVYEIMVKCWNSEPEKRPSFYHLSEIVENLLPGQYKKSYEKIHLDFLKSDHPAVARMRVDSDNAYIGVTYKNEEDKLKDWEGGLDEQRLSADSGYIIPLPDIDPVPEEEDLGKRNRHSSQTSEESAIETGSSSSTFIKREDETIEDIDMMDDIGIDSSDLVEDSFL

Binder | Average pTyr Inhibition [1] [%] | PROLIFERATION ASSAY: MG-63 CELLS, IC50 [2] [nM] | binding result (PDGFR-beta) | binding result (FLT3) | binding result (c-kit) | binding result (CSF-1R)
B1 | > 100 | 6.5 |  |  |  | 
B2 | > 100 | 18 |  |  |  | 
B3 | > 100 | 3.3 |  |  |  | 
B4 |  | 2.8 |  |  |  | 
B5 |  |  | no binding | no binding | no binding | no binding
B6 |  |  | no binding | no binding | no binding | no binding
B7 |  |  | no binding | no binding | no binding | no binding
B8 |  |  | no binding | no binding | no binding | no binding
B9 |  |  | no binding | no binding | no binding | no binding
B10 |  |  | no binding | no binding | no binding | no binding
B11 |  |  | no binding | no binding | no binding | no binding
B12 |  |  | no binding | no binding | no binding | no binding
B13 |  |  | no binding | no binding | no binding | no binding
B14 |  |  | no binding | no binding | no binding | no binding
B15 |  |  | no binding | no binding | no binding | no binding
B16 |  |  | no binding | no binding | no binding | no binding
B17 |  |  | no binding | no binding | no binding | no binding
B18 |  |  | no binding | no binding | no binding | no binding
B19 |  |  | no binding | no binding | no binding | no binding
B20 |  |  | no binding | no binding | no binding | no binding
B21 |  |  | no binding | no binding | no binding | no binding
